Reference: publication PMC6927192, “Comparative phosphorylation map of Dishevelled 3 links phospho-signatures to biological outputs” (Cell Communication and Signaling : CCS, 2019)
Square brackets hold non-standard residues; d marks the D form. Ends that are not written are not given here. pS = N[C@@H](COP(=O)(O)O)C(=O)O

Target: T1, Human DVL2 PDZ domain (aa 265–361) (human, UniProt O14641 265-361)
T1 construct: Dishevelled 2 (DVL2), human, PDZ domain, residues 265-361; 15N-labelled for the NMR titration; The pET construct has a TEV cleavage site after the tags; also called wt PDZ; wildtype PDZ; source: E. coli BL21-DE3(RIL), purified
T1 sequence (looked up): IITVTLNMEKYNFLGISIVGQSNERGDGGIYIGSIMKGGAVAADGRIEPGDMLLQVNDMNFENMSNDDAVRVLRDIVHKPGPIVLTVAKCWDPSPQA
Assay: NMR titration; series of 1H-15N HSQC spectra, 100 μM 15N-labeled PDZ (wild type or phosphomimicking mutant) with increasing amounts of DVL_C peptide (stock 800 μM); proteins stored in 20 mM Hepes (pH 6.8), 50 mM KCl; 700 MHz; qualitative analysis
Conditions: both partners purified

binding result: binds
B1: DVL3_C peptide 698–716 with phosphorylated S700 (peptide, UniProt Q92997 698-716, looked up)
peptide: RQ[pS]FRMAMGNPSEFFVDVM
notes: Dishevelled 3 (DVL3), human, C-terminal residues 698-716; also called DVL3 C-terminal peptide; source: bought: KareBay Biochem, Inc. (New Jersey, USA)
